# In IntAct's records for PubMed 22921829:
# B1: Mothers against decapentaplegic homolog 3 (Homo sapiens), P84022 (parent)
# chain: MSSILPFTPPIVKRLLGWKKGEQNGQEEKWCEKAVKSLVKKLKKTGQLDELEKAITTQNVNTKCITIPRSLDGRLQVSHRKGLPHVIYCRLWRWPDLHSHHELRAMELCEFAFNMKKDEVCVNPYHYQRVETPVLPPVLVPRHTEIPAEFPPLDDYSHSIPENTNFPAGIEPQSNIPETPPPGYLSEDGETSDHQMNHSMDAGSPNLSPNPMSPAHNNLDLQPVTYCEPAFWCSISYYELNQRVGETFHASQPSMTVDGFTDPSNSERFCLGLLSNVNRNAAVELTRRHIGRGVRLYYIGGEVFAECLSDSAIFVQSPNCNQRYGWHPATVCKIPPGCNLKIFNNQEFAALLAQSVNQGFEAVYQLTRMCTIRMSFVKGWGAEYRRQTVTSTPCWIELHLNGPLQWLDKVLTQMGSPSIRCSSVS
# B2: E3 ubiquitin-protein ligase SMURF1 (Homo sapiens), Q9HCE7-1 (parent)
# chain: MSNPGTRRNGSSIKIRLTVLCAKNLAKKDFFRLPDPFAKIVVDGSGQCHSTDTVKNTLDPKWNQHYDLYVGKTDSITISVWNHKKIHKKQGAGFLGCVRLLSNAISRLKDTGYQRLDLCKLNPSDTDAVRGQIVVSLQTRDRIGTGGSVVDCRGLLENEGTVYEDSGPGRPLSCFMEEPAPYTDSTGAAAGGGNCRFVESPSQDQRLQAQRLRNPDVRGSLQTPQNRPHGHQSPELPEGYEQRTTVQGQVYFLHTQTGVSTWHDPRIPSPSGTIPGGDAAFLYEFLLQGHTSEPRDLNSVNCDELGPLPPGWEVRSTVSGRIYFVDHNNRTTQFTDPRLHHIMNHQCQLKEPSQPLPLPSEGSLEDEELPAQRYERDLVQKLKVLRHELSLQQPQAGHCRIEVSREEIFEESYRQIMKMRPKDLKKRLMVKFRGEEGLDYGGVAREWLYLLCHEMLNPYYGLFQYSTDNIYMLQINPDSSINPDHLSYFHFVGRIMGLAVFHGHYINGGFTVPFYKQLLGKPIQLSDLESVDPELHKSLVWILENDITPVLDHTFCVEHNAFGRILQHELKPNGRNVPVTEENKKEYVRLYVNWRFMRGIEAQFLALQKGFNELIPQHLLKPFDQKELELIIGGLDKIDLNDWKSNTRLKHCVADSNIVRWFWQAVETFDEERRARLLQFVTGSTRVPLQGFKALQGSTGAAGPRLFTIHLIDANTDNLPKAHTCFNRIDIPPYESYEKLYEKLLTAVEETCGFAVE
# B3: E3 ubiquitin-protein ligase NEDD4-like (Homo sapiens), Q96PU5-5 (parent)
# chain: MATGLGEPVYGLSEDEGESRILRVKVVSGIDLAKKDIFGASDPYVKLSLYVADENRELALVQTKTIKKTLNPKWNEEFYFRVNPSNHRLLFEVFDENRLTRDDFLGQVDVPLSHLPTEDPTMERPYTFKDFLLRPRSHKSRVKGFLRLKMAYMPKNGGQDEENSDQRDDMEHGWEVVDSNDSASQHQEELPPPPLPPGWEEKVDNLGRTYYVNHNNRTTQWHRPSLMDVSSESDNNIRQINQEAAHRRFRSRRHISEDLEPEPSEGGDVPEPWETISEEVNIAGDSLGLALPPPPASPGSRTSPQELSEELSRRLQITPDSNGEQFSSLIQREPSSRLRSCSVTDAVAEQGHLPPPSVAYVHTTPGLPSGWEERKDAKGRTYYVNHNNRTTTWTRPIMQLAEDGASGSATNSNNHLIEPQIRRPRSLSSPTVTLSAPLEGAKDSPVRRAVKDTLSNPQSPQPSPYNSPKPQHKVTQSFLPPGWEMRIAPNGRPFFIDHNTKTTTWEDPRLKFPVHMRSKTSLNPNDLGPLPPGWEERIHLDGRTFYIDHNSKITQWEDPRLQNPAITGPAVPYSREFKQKYDYFRKKLKKPADIPNRFEMKLHRNNIFEESYRRIMSVKRPDVLKARLWIEFESEKGLDYGGVAREWFFLLSKEMFNPYYGLFEYSATDNYTLQINPNSGLCNEDHLSYFTFIGRVAGLAVFHGKLLDGFFIRPFYKMMLGKQITLNDMESVDSEYYNSLKWILENDPTELDLMFCIDEENFGQTYQVDLKPNGSEIMVTNENKREYIDLVIQWRFVNRVQKQMNAFLEGFTELLPIDLIKIFDENELELLMCGLGDVDVNDWRQHSIYKNGYCPNHPVIQWFWKAVLLMDAEKRIRLLQFVTGTSRVPMNGFAELYGSNGPQLFTIEQWGSPEKLPRAHTCFNRLDLPPYETFEDLREKLLMAVENAQGFEGVD
# B4: Mothers against decapentaplegic homolog 7 (Homo sapiens), O15105 (parent)
# chain: MFRTKRSALVRRLWRSRAPGGEDEEEGAGGGGGGGELRGEGATDSRAHGAGGGGPGRAGCCLGKAVRGAKGHHHPHPPAAGAGAAGGAEADLKALTHSVLKKLKERQLELLLQAVESRGGTRTACLLLPGRLDCRLGPGAPAGAQPAQPPSSYSLPLLLCKVFRWPDLRHSSEVKRLCCCESYGKINPELVCCNPHHLSRLCELESPPPPYSRYPMDFLKPTADCPDAVPSSAETGGTNYLAPGGLSDSQLLLEPGDRSHWCVVAYWEEKTRVGRLYCVQEPSLDIFYDLPQGNGFCLGQLNSDNKSQLVQKVRSKIGCGIQLTREVDGVWVYNRSSYPIFIKSATLDNPDSRTLLVHKVFPGFSIKAFDYEKAYSLQRPNDHEFMQQPWTGFTVQISFVKGWGQCYTRQFISSCPCWLEVIFNSR
# Variants of: B1
# Details: with NEDD4L
row,Variant,effect of a mutation on the interaction
1,P181A;P182A,disrupting interaction strength
2,T179A,disrupting interaction strength

# Variants of: B2
# Details: with smad7_human SMAD7, O15105
row,Variant,effect of a mutation on the interaction
1,R243E,decreasing interaction strength
2,R243A,decreasing interaction strength
3,Q249E,decreasing interaction strength
4,Q247E;Q249E,decreasing interaction strength

# Variants of: B3
# Details: with smad7_human SMAD7, O15105
row,Variant,effect of a mutation on the interaction
1,R380E,decreasing interaction strength
2,K378E;R380E,decreasing interaction strength
3,K378E,decreasing interaction strength

# Variants of: B4
# Details: with NEDD4L
row,Variant,effect of a mutation on the interaction
1,P208A;P209A,disrupting interaction strength
